Patent US11453711B2, “Fusion proteins of GLP-1 and GDF15 and conjugates thereof” (BEIJING QL BIOPHARMACEUTICAL CO., LTD., priority 2019, dated 2022)
Like-named read-outs stand apart in the source and are kept apart here.

How the values were obtained:
[1] = Body weight and food intake in C57BL/6 mice, unconjugated fusion proteins, 30 nmol/kg daily 10 days; type: in vivo
Protocol: 10 week old male C57BL/6 mice were injected everyday subcutaneously with 15 nmol/kg of the fusion protein conjugates (i.e., MLC002, MLC 004, MLC 005, MLC 006, MLC 007, MLC 008, and MLC 009) for 14 days. Food intake and body weight were measured daily and five animals were used for each treatment group. Body weight (BW) was monitored for each individual animal, but food intake for each group animals was measured together. Day 1 and Day 14 are first day and last day of molecule dosage. % BW loss=100*(BW on Day n-BW on Day 1)/(BW on Day 1). Cumulative food intake on Day n represents sum of food intake from Day 1 to Day n. Data are indicated as mean values and standard error (SEM) or pooled values. Statistical analysis was performed by One-way ANOVA. Body weight reduction on Day 11 is calculated by −1*(% BW loss−% BW loss of vehicle group); Cumulative food intake reduction is calculated by −100*(cumulative food intake-cumulative food intake of vehicle)/cumulative food intake of vehicle.
As described in the above method, a daily dose of 30 nmol/kg of the unconjugated fusion proteins (i.e., MLC100, MLC023, MLC022, MLC020, MLC003, MLC124, MLC021, MLC019, MLC102) were administered to C57BL/6 for 10 days. Data were calculated as above method. Day 1 and Day 10 are first day and last day of administration.

[2] = Additive or synergistic effect: body weight and food intake in C57BL/6 mice, 30 nmol/kg daily sc 10 days; type: in vivo; details: versus negative controls MLC096 and MLC097
Protocol: FIGS. 7A-7B show In vivo efficacy in C57 lean mice. To evaluate the body weight and food intake effects of the fusion proteins, 10 week old male C57BL/6J mice were dosed everyday subcutaneously with 30 nmol/kg protein for 10 days. Food intake and body weight were measured daily. […] Data are expressed as mean values and standard error (SEM) for FIG. 7A. n=5 for each treatment group. For FIG. 7B, a pooled food intake was measured for each treatment group.
10 week old male C57BL/6 mice were injected everyday subcutaneously with 30 nmol/kg of the unconjugated fusion proteins (i.e., MLC096, MLC097 and MLCO21) for 10 days. Food intake and body weight were measured daily and five animals were used for each treatment group. Body weight (BW) was monitored for each individual animal, but food intake for each group animals was measured together. Day 1 and Day 10 are first day and last day of molecule dosage. % BW loss=100*(BW on Day n-BW on Day 1)/(BW on Day 1). Cumulative food intake on Day n represents sum of food intake from Day 1 to Day n. Data are indicated as mean values and standard error (SEM) or pooled values. Statistical analysis was performed by One-way ANOVA.
As discussed above, MLC096 and MLC097 were used as negative controls, as they contained known inactivating mutation in GDF15 or GLP-1.

[3] = Efficacy in db/db mice: body weight, food intake, glucose, biomarkers, daily sc 14 days; type: in vivo
Protocol: (§1) FIGS. 4A-4D show In vivo efficacy in db/db mice. To evaluate the body weight, food intake and glucose effects of the fusion proteins, 8 week old male db/db mice were dosed everyday subcutaneously with 30 nmol/kg protein for 14 days. […] Compared to Vehicle control: ***, p<0.001. Data are expressed as mean values and standard error (SEM) for FIGS. 4A, 4B and 4D. n=5 for each treatment group. For FIG. 4C, a pooled food intake was measured for each treatment group.
FIGS. 5A-5F show In vivo efficacy in db/db mice. To evaluate the body weight, food intake and glucose effects of the fusion proteins, 8 week old male db/db mice were dosed everyday subcutaneously with different concentrations of proteins for 14 days. FIGS. 5A and 5B show body weight loss upon protein treatments from Day1 to Day15. […] Compared to Vehicle control: ***, p<0.001; **, p<0.01; *, p<0.05; ns, non-statistically significant; FIGS. 5D and 5E show cumulative food intake with protein treatments from Day1 to Day15. […] Compared to Vehicle control: ***, p<0.001**, p<0.01; *, p<0.05; ns, non-statistically significant. Data are expressed as mean values and standard error (SEM) for FIGS. 5A, 5B, 5C and 5F. n=5 for each treatment group. For FIGS. 5D and 5E, a pooled food intake was measured for each treatment group.
as §1, with “8A-8I” for “4A-4D”, “different concentrations of proteins” for “30 nmol/kg protein”, “FIGS. 8D-8F show body weight loss upon dose titrations of fusion protein conjugates. […]” for “Compared to Vehicle control: ***, p<0.001.”, “8A” for “4A, 4B”, “8C-I.” for “4D.”, “8B,” for “4C,”
Selected fusion protein conjugates are assessed in disease animal models (DIO mice, db/db mice, etc.) to determine body weight, food intake, glucose efficacy with dose responses. Some biomarkers are also measured, including fasting insulin, plasma triglyceride, cholesterol, liver triglyceride, and inflammatory biomarkers (ALT, AST and CRP).
8 week old male db/db mice were injected everyday subcutaneously with designated proteins for 14 days. Age matched lean mice were used as control. Food intake and body weight were measured daily and five animals were used for each treatment group. Fasting glucose were tested on designated days as shown in each figure. Body weight was monitored for each individual animal, but food intake for each group animals was measured together. Day 1 and Day 14 are first day and last day of molecule dosage. % BW loss=100*(BW on Day n-BW on Day 1)/(BW on Day 1). Cumulative food intake on Day n represents sum of food intake from Day 1 to Day n. Terminal blood was collected and EDTA-2K plasma was prepared and frozen at −80° C. for biomarker measurement. Liver was also collected and frozen in liquid nitrogen and store at −80° C. Data are indicated as mean values and standard error (SEM) or pooled values. Statistical analysis was performed by One-way ANOVA.

[4] = PK study in non-human primates, single sc dose 5 nmol/kg, plasma ELISA; details: monkey, single sc dose 5 nmol/kg
Protocol: (§2) Plasma samples were collected pre-dose (−5 min), 2 hr, 4 hr, 6 hr, 8 hr, 24 hr, 48 hr, 72 hr, 96 hr, 120 hr, 144 hr, 216 hr, 288 hr, 360 hr, 432 hr and 504 hr after the injection. The concentrations of the fusion protein conjugates in the plasma were measured by an ELISA assay which has immunoreactivity towards both GDF15 and intact N-terminal of GLP-1. Based on the graph showing plasma concentration of each protein versus time after subcutaneous injection, the pharmacokinetic parameters (including Tmax, Cmax, T1/2, AUC) were calculated by WinNonlin software.

[5] = mouse, in vivo, sc, 30 nmol/kg
[6] = cynomolgus monkey, in vivo, sc, 5 nmol/kg
Protocol: as §2

[7] = Body weight and food intake in C57BL/6 mice, fusion protein conjugates, 30 nmol/kg daily 10 days; type: in vivo
Procedure, shortened: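 Male C57BL/6 mice received fusion protein conjugates by daily subcutaneous injection, with dosing running from Day 1 to Day 10. Body weight was recorded daily per animal and food intake daily per group. Body weight reduction was expressed relative to vehicle percent loss from Day 1. Cumulative food intake reduction was expressed as percent decrease versus vehicle.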

[8] = Pharmacokinetic measurement in mouse, single sc dose 30 nmol/kg, plasma ELISA
[9] = Efficacy in DIO mice, daily sc 28 days; type: in vivo, DIO male C57BL/6 mice
Protocol: FIGS. 6A-6E show In vivo efficacy in DIO mice. To evaluate the body weight, food intake and glucose effects of the fusion proteins, 17 week old DIO mice (C57BL/6 mice on high fat diet for 13 weeks) were dosed everyday subcutaneously with different concentrations of proteins for 28 days. […] FIGS. 6D and 6E show body weight change with dose titrations of MLC089 and MLC093 at 3, 10 and 30 nmol/kg. Data are expressed as mean values and standard error (SEM) for FIGS. 6A, 6C, 6D and 6E. n=5 for each treatment group. For FIG. 6B, a pooled food intake was measured for each treatment group.
17 week old DIO male C57BL/6 mice (˜45 g) were injected everyday subcutaneously with designated proteins (i.e., MLC089, MLC093) for 28 days. Food intake and body weight were measured daily and five animals were used for each treatment group. Fasting glucose was also monitored on designated days. Body weight and glucose were monitored for each individual animal, but food intake for each group animals was measured together. Day 1 and Day 28 are first day and last day of molecule dosage. % BW loss=100*(BW on Day n-BW on Day 1)/(BW on Day 1). Cumulative food intake on Day n represents sum of food intake from Day 1 to Day n. Terminal blood was collected and EDTA-2K plasma was prepared and frozen at −80 C for biomarker measurement. Liver was also collected and frozen in liquid nitrogen and store at −80 C. Data are indicated as mean values and standard error (SEM) or pooled values.

[10] = C57 mice, 30 nmol/kg daily, Day11, unconjugated fusion proteins
[11] = 30 nmol/kg, FIG. 5A-E, versus Semaglutide, Tirzepatide and MLC014
[12] = 30 nmol/kg, FIG. 8A-C, versus Semaglutide, Tirzepatide and MLC014

B1: MLC021: unconjugated GLP-1/GDF15 fusion protein, linker of at least 80 residues (protein)
chain: HGEGTFTSDVSSYLEEQAAKEFIAWLVRGGGGQEPGAQPGQEPGAQPGQEPGAQPGQEPGAQPGQEPGAQPGQEPGAQPGAQPGAQPGAQPGAQPGAQPGAQPGAQPGAQPARQGDHCPLGPGRCCRLHTVRASLEDLGWADWVLSPREVQVTMCIGACPSQFRAANLHAQIKTSLHRLKPDTVPAPCCVPASYNPMVLIQKTDTGVSLQTYDDLLAKDCHCI
- Body weight reduction at 30 nmol/kg (% reduction compared to vehicle)(Day11) [1, 10]: 22.1%
- Cumulative food intake reduction at 30 nmol/kg (% reduction compared to vehicle)(Day11) [1, 10]: 48.7%
- in vivo efficacy (food intake and body weight reduction) ([1]; unconjugated fusion proteins, 30 nmol/kg daily 10 days, by linker length): the most significant results among all the tested fusion proteins
- body weight reduction efficacy [2]: much better body weight reduction efficacy
- food intake [2]: decreased food intake

B2: MLC047: fusion polypeptide SEQ ID NO: 330 conjugated with Moiety A at 40K of linker (conjugate)
chain: HGEGTFTSDVSSYLEEQAAREFIAWLVRGGGGQEPGAQPGQEPGAQPGQEPGAQPGQEPGAQPGQEPGAQKGQEPGAQPGAQPGAQPGAQPGAQPGAQPGAQPGAQPGAQPARQGDHCPLGPGRCCRLHTVRASLEDLGWADWVLSPREVQVTMCIGACPSQFRAANLHAQIKTSLHRLRPDTVPAPCCVPASYNPMVLIQRTDTGVSLQTYDDLLARDCHCI
- body weight loss [3, 11]: sustainable and much better effect
- food intake suppression [3, 11]: sustainable and much better effect
- efficacy ([3]; FIG. 5 study): better efficacy than Semaglutide and GDF15 derivative (MLC014)
- Tmax [4]: 16 h
- AUC0-24 h [5]: 1.2468 µM·h
- Cmax [5]: 71.9 nM
- Terminal t1/2 [5]: 9.3 h
- AUC0-96 h [6]: 1.541 µM·h
- Body weight reduction at 30 nmol/kg (% reduction compared to vehicle)(Day11) [7]: 24.7%
- Cumulative food intake reduction at 30 nmol/kg (% reduction compared to vehicle)(Day11) [7]: 51.2%
- Tmax ([8]; single sc dose 30 nmol/kg): 10.7 h

B3: MLC089: fusion polypeptide SEQ ID NO: 379 conjugated with Moiety B at 39C of Linker (conjugate)
chain: HGEGTFTSDVSSYLEEQAAKEFIAWLVRGGGGAQPGAQPGAQPGAQPGAQPGAQPGAQPGAQPGQEPGQCPGQEPGAQPGQEPGAQPGQEPGAQPGQEPGAQPGQEPGAQPARQGDHCPLGPGRCCRLHTVRASLEDLGWADWVLSPREVQVTMCIGACPSQFRAANLHAQIKTSLHRLKPDTVPAPCCVPASYNPMVLIQKTDTGVSLQTYDDLLAKDCHCI
modifications: Moiety B conjugated at linker Cys39
- body weight loss [3, 12]: more body weight loss, food intake suppression and glycemic control
- food intake suppression [3, 12]: more body weight loss, food intake suppression and glycemic control
- glycemic control [3, 12]: more body weight loss, food intake suppression and glycemic control
- efficacy ([3]; FIG. 8 study): better efficacy than Semaglutide and GDF15 derivative (MLC014)
- body weight reduction efficacy ([9]; DIO mice, 30 nmol/kg daily 28 days, FIG. 6A): much better body weight reduction efficacy than Semaglutide and GDF15 derivative (MLC014)
- dose dependence of body weight reduction ([9]; DIO mice, 3, 10 and 30 nmol/kg, FIGS. 6D and 6E): dose dependent efficacy on body weight reduction
- fasting glucose ([9]; DIO mice, FIG. 6C): reached similar level to Semaglutide
- efficacy ([9]; DIO study, FIG. 6): better efficacy than Semaglutide and GDF15 derivative (MLC014)
- AUC0-96 h [4]: 3.413 µM·h
- Terminal t1/2 [4]: 54 h
- Tmax [4]: 8 h
- Cmax ([4]; read-out: Cmax (nmol/L)): 70.5 nmol/L
- Body weight reduction at 30 nmol/kg (% reduction compared to vehicle)(Day11) [7]: 24.6%
- Cumulative food intake reduction at 30 nmol/kg (% reduction compared to vehicle)(Day11) [7]: 29.9%
- Cmax ([8]; read-out: Cmax (nmol/L), single sc dose 30 nmol/kg): 116 nmol/L
- AUC0-24 h ([8]; single sc dose 30 nmol/kg): 1.9822 µM·h
- Terminal t1/2 ([8]; single sc dose 30 nmol/kg): 14.7 h
- Tmax ([8]; single sc dose 30 nmol/kg): 10.7 h
